Results on 2 substances are retold here after PMC7241075.

Several values for one entry are separate records, joined by “and”; a condition that tells them apart may be missing. Equal entries are not always repeated.

Assay [1] addresses Scolopendra subspinipes subspinipes haemocyanin (Scolopendra subspinipes subspinipes). The assay is described as follows: negative-stain transmission electron microscopy; first SEC peak in TRIS stabilizing buffer, stained with 2% uranyl acetate, Jeol 1400Plus.
The target is the same in assay [2]. The assay is described as above. This is another data set of the same source.
Assay [3] shares this target. The assay is described as follows: SEC; plasma (supernatant of haemolymph, 3300g, 30 min, 4°C) on Superose 6 3.2/300, isocratic Tris buffer with 5 mM CaCl2 and 5 mM MgCl2, pH 8.2 or 8.0 (methods), 0.1 ml min^-1; oligomer told from the retention volume.
Assay [4] shares this target. The assay is described as follows: negative-stain transmission electron microscopy; Hc pellet from ultracentrifugation, 26-30 µg ml^-1, in 50 mM MES (pH 6.2, 6.6) or 50 mM TRIS-HCl (pH 7.2-8.5) with 5 mM CaCl2 and 5 mM MgCl2; particles counted as 3 × 6-mer or 1 × 6-mer.
In assay [5] the target is Scolopendra viridicornis haemocyanin (Scolopendra viridicornis). The assay is described as follows: negative-stain transmission electron microscopy; first SEC peak in TRIS stabilizing buffer, stained with 2% uranyl acetate, Jeol 1400Plus.
The target is the same in assay [6]. Description: SEC; plasma (supernatant of haemolymph, 3300g, 30 min, 4°C) on Superose 6 3.2/300, isocratic Tris buffer with 5 mM CaCl2 and 5 mM MgCl2, pH 8.2 or 8.0 (methods), 0.1 ml min^-1; oligomer told from the retention volume. In general terms: Size exclusion chromatography separates by hydrodynamic size, large species first.

Consider “Scolopendra subspinipes subspinipes haemocyanin (complex)”, for which the stoichiometry N in assay [1] is 18; in assay [2], 6; in assay [3], 18; in assay [4], 18 and 6.

For the substance “Scolopendra viridicornis haemocyanin (complex)”, the stoichiometry N in assay [5] is 36 and 18; in assay [6], 36.

By stoichiometry N is commonly meant a count of units in the complex or per binding partner.
